Laboratory results as given in the RNAGym collection of RNA variant scans (doi:10.1093/molbev/msab373).

B1: Azoarcus group I ribozyme (parent)
chain: GUGCCUUGCGCCGGGAAACCACGCAAGGGAUGGUGUCAAAUUCGGCGAAACCUAAGCGCCCGCCCGGGCGUAUGGCAACGCCGAGCCAAGCUUCGGCGCCUGCGCCGAUGAAGGUGUAGAGACUAGACGGCACCCACCUAAGGCAAACGCUAUGGUGAAGGCAUAGUCCAGGGAGUGGCGAAAGUCACACAAACCGG

Variants of: B1
Assay: reverse-splicing fitness (ratio to wild type); higher = more active; in vitro selection; Mg2+ level not given
How it was run: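 An in vitro group I ribozyme library with randomized positions was T7-transcribed and gel-purified. In triplicate, 10 pmol RNA in EPPS pH 7.5 was reacted with 50 pmoles of a 30-nt RNA substrate for 1 h at 37 °C across several added MgCl2 levels (1–48 mM), then stopped with EDTA. Products were reverse transcribed from a substrate-complementary primer, PCR-amplified and sequenced (HiSeq 4000). Fitness is a variant's read proportion after selection over that before, normalised to wild type.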

Q: Which reverse-splicing fitness does the source give for A145C C150G U176A here?
A: 0.364

Q: With A120U C150G C169G U176C as the variant, how does the reverse-splicing fitness read?
A: 0.0024

Q: With A120U C150G C169G U176A as the variant, how does the reverse-splicing fitness read?
A: 0.00487

Q: With A120U C150G C169G U176G as the variant, how does the reverse-splicing fitness read?
A: 0.00248

Q: For A145G C150G C169G, which reverse-splicing fitness is on record?
A: 0.0446

Q: Which reverse-splicing fitness does the source give for A145G C150G C169U here?
A: 0.0734

Q: For A145G C150G C169A, which reverse-splicing fitness is on record?
A: 0.0272

Q: With A120U A145U C169G as the variant, how does the reverse-splicing fitness read?
A: 0.256

Q: For A120U A145U C169A, which reverse-splicing fitness is on record?
A: 0.0173

Q: Which reverse-splicing fitness does the source give for A120U A145U C169U here?
A: 0.261

Q: For A120U A145U C169G U176G, which reverse-splicing fitness is on record?
A: 0.00322

Q: For A120U A145U C169G U176A, which reverse-splicing fitness is on record?
A: 0.0356

Q: Which reverse-splicing fitness does the source give for A120U A145U C169G U176C here?
A: 0.0807

Q: For A120U C150U C169G U176C, which reverse-splicing fitness is on record?
A: 0.0569

Q: Which reverse-splicing fitness does the source give for A120U C150U C169G U176G here?
A: 0.00278

Q: Which reverse-splicing fitness does the source give for A120U C150U C169G U176A here?
A: 0.0257

Q: Which reverse-splicing fitness does the source give for A145U C150A here?
A: 0.465

Q: For A145G C169U U176C, which reverse-splicing fitness is on record?
A: 0.174

Q: Which reverse-splicing fitness does the source give for A145G C169U U176A here?
A: 0.123

Q: Which reverse-splicing fitness does the source give for A145G C169U U176G here?
A: 0.0104

Q: With A120U U176G as the variant, how does the reverse-splicing fitness read?
A: 0.421

Q: For A120U U176A, which reverse-splicing fitness is on record?
A: 0.66

Q: For A120U U176C, which reverse-splicing fitness is on record?
A: 0.678

Q: For A145C C150A U176C, which reverse-splicing fitness is on record?
A: 0.206

Q: Which reverse-splicing fitness does the source give for A145C C150A U176G here?
A: 0.14

Q: With A145C C150A U176A as the variant, how does the reverse-splicing fitness read?
A: 0.217

Q: Which reverse-splicing fitness does the source give for A145G C150A C169G here?
A: 0.0594

Q: With A145G C150A C169A as the variant, how does the reverse-splicing fitness read?
A: 0.0304

Q: Which reverse-splicing fitness does the source give for A145G C150A C169U here?
A: 0.0924

Q: Which reverse-splicing fitness does the source give for A145C C150G C169U U176G here?
A: 0.00549

Q: For A145C C150G C169U U176A, which reverse-splicing fitness is on record?
A: 0.0183

Q: Which reverse-splicing fitness does the source give for A145C C150G C169U U176C here?
A: 0.0427

Q: For A145G C150U U176G, which reverse-splicing fitness is on record?
A: 0.308

Q: For A145G C150U U176A, which reverse-splicing fitness is on record?
A: 0.844

Q: Which reverse-splicing fitness does the source give for A145G C150U U176C here?
A: 0.821

Q: For A120U C150A C169U U176G, which reverse-splicing fitness is on record?
A: 0.00432

Q: With A120U C150A C169U U176C as the variant, how does the reverse-splicing fitness read?
A: 0.0195

Q: With A120U C150A C169U U176A as the variant, how does the reverse-splicing fitness read?
A: 0.0178

Q: Which reverse-splicing fitness does the source give for A120U A145G C150A C169G U176A here?
A: 0.012

Q: Which reverse-splicing fitness does the source give for A120U A145G C150A C169G U176C here?
A: 0.0214

Q: Which reverse-splicing fitness does the source give for A120U A145G C150A C169G U176G here?
A: 0.00259

Q: For A145G C150U C169G U176C, which reverse-splicing fitness is on record?
A: 0.11

Q: With A145G C150U C169G U176G as the variant, how does the reverse-splicing fitness read?
A: 0.00685

Q: With A145G C150U C169G U176A as the variant, how does the reverse-splicing fitness read?
A: 0.0615

Q: Which reverse-splicing fitness does the source give for A120U C150G C169U here?
A: 0.0339

Q: Which reverse-splicing fitness does the source give for A120U C150G C169A here?
A: 0.00834

Q: With A120U C150G C169G as the variant, how does the reverse-splicing fitness read?
A: 0.0252

Q: For A120U C150A C169A U176A, which reverse-splicing fitness is on record?
A: 0.00376

Q: For A120U C150A C169A U176C, which reverse-splicing fitness is on record?
A: 0.00333

Q: For A120U C150A C169A U176G, which reverse-splicing fitness is on record?
A: 0.00205

Q: Which reverse-splicing fitness does the source give for A145C C150U C169A U176A here?
A: 0.0158

Q: Which reverse-splicing fitness does the source give for A145C C150U C169A U176G here?
A: 0.00607

Q: With A145C C150U C169A U176C as the variant, how does the reverse-splicing fitness read?
A: 0.0196

Q: For A145G C150G C169G U176C, which reverse-splicing fitness is on record?
A: 0.0156

Q: Which reverse-splicing fitness does the source give for A145G C150G C169G U176G here?
A: 0.00608

Q: With A145G C150G C169G U176A as the variant, how does the reverse-splicing fitness read?
A: 0.014

Q: For A120U A145U, which reverse-splicing fitness is on record?
A: 0.89

Q: Which reverse-splicing fitness does the source give for A120U A145U C150G C169A U176A here?
A: 0.00344

Q: With A120U A145U C150G C169A U176G as the variant, how does the reverse-splicing fitness read?
A: 0.00241

Q: With A120U A145U C150G C169A U176C as the variant, how does the reverse-splicing fitness read?
A: 0.00335

Q: For A145C C150U C169U U176C, which reverse-splicing fitness is on record?
A: 0.0741

Q: Which reverse-splicing fitness does the source give for A145C C150U C169U U176A here?
A: 0.0513

Q: Which reverse-splicing fitness does the source give for A145C C150U C169U U176G here?
A: 0.00838

Q: With A120U A145U C150G C169U U176G as the variant, how does the reverse-splicing fitness read?
A: 0.00288

Q: Which reverse-splicing fitness does the source give for A120U A145U C150G C169U U176C here?
A: 0.0175

Q: Which reverse-splicing fitness does the source give for A120U A145U C150G C169U U176A here?
A: 0.00679

Q: Which reverse-splicing fitness does the source give for A120U A145G C150G C169U U176A here?
A: 0.00909

Q: With A120U A145G C150G C169U U176C as the variant, how does the reverse-splicing fitness read?
A: 0.0205

Q: Which reverse-splicing fitness does the source give for A120U A145G C150G C169U U176G here?
A: 0.0045

Q: With A120U A145G C150A U176G as the variant, how does the reverse-splicing fitness read?
A: 0.063

Q: With A120U A145G C150A U176C as the variant, how does the reverse-splicing fitness read?
A: 0.218

Q: For A120U A145G C150A U176A, which reverse-splicing fitness is on record?
A: 0.222

Q: For A120U A145U C150U C169U, which reverse-splicing fitness is on record?
A: 0.197

Q: With A120U A145U C150U C169G as the variant, how does the reverse-splicing fitness read?
A: 0.166

Q: With A120U A145U C150U C169A as the variant, how does the reverse-splicing fitness read?
A: 0.0103

Q: For A120U C169U U176G, which reverse-splicing fitness is on record?
A: 0.0138

Q: With A120U C169U U176A as the variant, how does the reverse-splicing fitness read?
A: 0.0922

Q: For A120U C169U U176C, which reverse-splicing fitness is on record?
A: 0.139

Q: Which reverse-splicing fitness does the source give for A120U A145G C169U U176A here?
A: 0.0927

Q: With A120U A145G C169U U176C as the variant, how does the reverse-splicing fitness read?
A: 0.126

Q: For A120U A145G C169U U176G, which reverse-splicing fitness is on record?
A: 0.0132

Q: With A145C U176C as the variant, how does the reverse-splicing fitness read?
A: 0.843

Q: With A145C U176G as the variant, how does the reverse-splicing fitness read?
A: 0.411

Q: Which reverse-splicing fitness does the source give for A145C U176A here?
A: 0.767
